Consider 1 substance from publication doi:10.1101/2025.08.25.672245.

Assay [1] concerns the target firefly luciferase Fluc^A12C-K329C (Fluc^NDS1, N-terminal domain sensor) (firefly) [luciferase: P08659]. Nature of the assay: single-molecule FRET within the labelled client.
For assay [2], the target named is firefly luciferase Fluc^K378C-K496C (Fluc^CDS1, C-terminal domain sensor) (firefly) [luciferase: P08659]. Kind of assay: single-molecule FRET within the labelled client.

As to “DnaK (bacterial Hsp70) (from UniProt P0A6Y8 1-638) (natural protein)”, the percent of the time DnaK-bound (FRET < 0.3) after 15 min in assay [1] and in assay [2] was 15% each time.
